These results are taken from paper PMC11194110, “Single-molecule imaging reveals a direct role of CTCF’s zinc fingers in SA interaction and cluster-dependent RNA recruitment” (Nucleic Acids Research, 2024).

Data set [1] relates to CTCF WT (human). Briefly: single-molecule DNA curtains lifetime. To be noted: DNA curtains: CTCF 10 nM (ZF9-CT 50 nM, ZF4-7 200 nM) or SA 100 nM, load at 50 mM NaCl, wash at 300 mM NaCl, buffer, pH and temperature not given in material; for binding signal (min (lifetime)): 300 mM NaCl wash, photobleaching corrected.
For data set [2], the system named is CTCF WT (human). Kind of data set: single-molecule DNA curtains (TIRF). To be noted: 300 mM NaCl wash; DNA curtains: CTCF 10 nM (ZF9-CT 50 nM, ZF4-7 200 nM) or SA 100 nM; load at 50 mM NaCl, wash at 300 mM NaCl; buffer, pH and temperature not given in material.
Data set [3] deals with T1, CTCF ZF4-7 del1-350;del461-727 (human).
T1 sequence: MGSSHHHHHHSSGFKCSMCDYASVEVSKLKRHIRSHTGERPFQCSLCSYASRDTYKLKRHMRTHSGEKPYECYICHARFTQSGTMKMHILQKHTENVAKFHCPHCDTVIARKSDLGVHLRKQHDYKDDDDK
Kind of data set: single-molecule DNA curtains lifetime. To be noted: not enriched on CBSs; DNA curtains: CTCF 10 nM (ZF9-CT 50 nM, ZF4-7 200 nM) or SA 100 nM; load at 50 mM NaCl, wash at 300 mM NaCl; buffer, pH and temperature not given in material.

The test system of data set [4] is CTCF ΔRBR (ΔRBR+ΔZF1,10,11) (human). Kind of data set: single-molecule DNA curtains lifetime. To be noted: 300 mM NaCl wash; CBS enrichment similar to WT; DNA curtains: CTCF 10 nM (ZF9-CT 50 nM, ZF4-7 200 nM) or SA 100 nM; load at 50 mM NaCl, wash at 300 mM NaCl; buffer, pH and temperature not given in material.
The subject of a further data set is T2, CTCF ZF9-CT (human).
T2 sequence: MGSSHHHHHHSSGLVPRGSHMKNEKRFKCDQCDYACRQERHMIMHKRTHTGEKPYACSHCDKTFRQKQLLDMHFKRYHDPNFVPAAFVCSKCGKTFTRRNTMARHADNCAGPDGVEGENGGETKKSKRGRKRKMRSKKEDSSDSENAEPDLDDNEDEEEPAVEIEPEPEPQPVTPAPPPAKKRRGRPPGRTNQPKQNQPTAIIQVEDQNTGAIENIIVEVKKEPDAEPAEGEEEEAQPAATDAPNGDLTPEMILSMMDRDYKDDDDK
Briefly: single-molecule DNA curtains lifetime. To be noted: not enriched on CBSs (negative enrichment); prefers AT-rich DNA; DNA curtains: CTCF 10 nM (ZF9-CT 50 nM, ZF4-7 200 nM) or SA 100 nM; load at 50 mM NaCl, wash at 300 mM NaCl; buffer, pH and temperature not given in material.

The subject of data set [5] is CTCF WT;SA2 (human;human?). Briefly: single-molecule DNA curtains (TIRF). To be noted: preincubated 10 nM CTCF, 100 nM SA2; 300 mM NaCl wash; DNA curtains: CTCF 10 nM (ZF9-CT 50 nM, ZF4-7 200 nM) or SA 100 nM; load at 50 mM NaCl, wash at 300 mM NaCl; buffer, pH and temperature not given in material.
In data set [6] the test system is CTCF WT;SA1 (human;human?). Kind of data set: single-molecule DNA curtains (TIRF). To be noted: preincubated 10 nM CTCF, 100 nM SA1; 300 mM NaCl wash; DNA curtains: CTCF 10 nM (ZF9-CT 50 nM, ZF4-7 200 nM) or SA 100 nM; load at 50 mM NaCl, wash at 300 mM NaCl; buffer, pH and temperature not given in material.
The target in data set [7] is CTCF ΔNC (truncation mutant missing both CTCF termini, containing all 11 ZFs) (human). Briefly: single-molecule photobleaching step counting on DNA curtains; labeled CTCF on λ-DNA at 50 mM NaCl without prior removal of unspecifically bound CTCF, 25 ng/μl 100 bp Cy3-RNA added; bleaching steps counted at positions of captured RNA; both lasers at 140 mW.
In data set [8] the target is CTCF WT (human CCCTC-binding factor, full-length) (human) (UniProt P49711). The description is as above.
For data set [9], the target named is T3, CTCF WT (human CCCTC-binding factor, full-length) (human, UniProt P49711 1-727, fluorescent dye (AF568, Atto 643 or Alexa Fluor 660) on the Halo-tag through a chloroalkane linker; unlabeled in the SA transcription experiments).
T3 construct: 11 zinc fingers and two unstructured termini; also called AF-568-CTCF-WT; AF568-CTCF; source: High Five (Hi5) insect cells, purified (Ni-NTA, heparin, Superose 6); not shown: Halo, N-terminal, kept
T3 sequence (looked up): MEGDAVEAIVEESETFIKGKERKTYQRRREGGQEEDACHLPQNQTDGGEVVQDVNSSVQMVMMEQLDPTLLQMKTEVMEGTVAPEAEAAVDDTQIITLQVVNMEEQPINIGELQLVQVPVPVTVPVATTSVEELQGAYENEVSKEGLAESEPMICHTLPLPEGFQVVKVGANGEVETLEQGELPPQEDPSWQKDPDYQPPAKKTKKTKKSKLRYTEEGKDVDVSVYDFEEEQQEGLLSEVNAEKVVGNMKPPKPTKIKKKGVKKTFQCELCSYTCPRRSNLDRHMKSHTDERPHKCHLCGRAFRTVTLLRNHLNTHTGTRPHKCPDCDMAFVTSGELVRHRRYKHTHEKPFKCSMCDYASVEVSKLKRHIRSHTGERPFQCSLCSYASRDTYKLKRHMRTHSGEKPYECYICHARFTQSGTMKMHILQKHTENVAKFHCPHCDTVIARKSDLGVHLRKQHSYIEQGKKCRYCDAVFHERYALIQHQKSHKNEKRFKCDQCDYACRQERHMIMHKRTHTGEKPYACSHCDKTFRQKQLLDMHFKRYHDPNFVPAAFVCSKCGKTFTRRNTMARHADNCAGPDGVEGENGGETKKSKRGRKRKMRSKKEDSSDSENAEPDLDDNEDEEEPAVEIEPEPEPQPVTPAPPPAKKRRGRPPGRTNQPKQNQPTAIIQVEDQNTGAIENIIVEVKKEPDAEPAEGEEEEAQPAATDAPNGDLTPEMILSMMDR
Briefly: single-molecule DNA curtains (TIRF microscopy), combined loading; 100 or 400 nM SA-LD655 preincubated with 10 nM CTCF in CTCF 100 buffer (40 mM Tris pH 7.5, 100 mM NaCl, 1 mM MgCl2, 1 mg/ml BSA, 1 mM DTT) 5 min at RT; 30 s on λ-DNA with 4× CBSs in 50 mM NaCl, then 3 min (lifetimes: up to 15 min) in 300 mM NaCl; SA read at CBS-bound CTCF (enrichment, lifetime). To be noted: both partners purified.

In the case of 1xT7-1xCBS λ-DNA, the binding signal (min (lifetime)) in the data set with CTCF WT (human) [1] amounted to 50. This molecule displayed a binding signal (fold enrichment on CBS) with CTCF WT (human) [2] of 7.

Regarding 2xT7-4xCBSs λ-DNA, the values for the binding signal (fold reduced lifetime vs WT) (in data set [3]; in data set [4]; in the data set with CTCF ZF9-CT (human)) were 90, 2.5 and 25, respectively. Besides, in the data set on CTCF WT (human) [1], the binding signal (min (lifetime)) turned out to be 50. In data set [5], the binding signal (fold SA2 enrichment on CBS) stood at 8. Further, the binding signal (fold enrichment on CBS) with CTCF WT (human) [2] was 16. The same molecule came in with a binding signal (fold SA1 enrichment on CBS) in [6] of 10.

With λ-DNA (non-CBS), the binding signal (fold lower lifetime than on CBS) with CTCF WT (human) [1] (coats DNA at 50 mM NaCl, mostly washed off at 300 mM) was over 40.

Molecule “CTCF ΔNC (truncation mutant missing both CTCF termini, containing all 11 ZFs) (domain or fragment)” displayed a photobleaching steps in clusters on DNA (bleaching steps) in data set [7] of 9.

With “CTCF WT (human CCCTC-binding factor, full-length) (from UniProt P49711 1-727) (natural protein)”, in data set [8], the photobleaching steps in CTCF-RNA clusters is 8.8 steps and the stoichiometry N (CTCF molecules) came to 17.

B1: Cohesin subunit SA2 (natural protein, UniProt Q8N3U4 1-1231, looked up)
chain: MIAAPEIPTDFNLLQESETHFSSDTDFEDIEGKNQKQGKGKTCKKGKKGPAEKGKGGNGGGKPPSGPNRMNGHHQQNGVENMMLFEVVKMGKSAMQSVVDDWIESYKHDRDIALLDLINFFIQCSGCKGVVTAEMFRHMQNSEIIRKMTEEFDEDSGDYPLTMAGPQWKKFKSSFCEFIGVLVRQCQYSIIYDEYMMDTVISLLTGLSDSQVRAFRHTSTLAAMKLMTALVNVALNLSINMDNTQRQYEAERNKMIGKRANERLELLLQKRKELQENQDEIENMMNAIFKGVFVHRYRDAIAEIRAICIEEIGIWMKMYSDAFLNDSYLKYVGWTMHDKQGEVRLKCLTALQGLYYNKELNSKLELFTSRFKDRIVSMTLDKEYDVAVQAIKLLTLVLQSSEEVLTAEDCENVYHLVYSAHRPVAVAAGEFLYKKLFSRRDPEEDGMMKRRGRQGPNANLVKTLVFFFLESELHEHAAYLVDSMWDCATELLKDWECMNSLLLEEPLSGEEALTDRQESALIEIMLCTIRQAAECHPPVGRGTGKRVLTAKEKKTQLDDRTKITELFAVALPQLLAKYSVDAEKVTNLLQLPQYFDLEIYTTGRLEKHLDALLRQIRNIVEKHTDTDVLEACSKTYHALCNEEFTIFNRVDISRSQLIDELADKFNRLLEDFLQEGEEPDEDDAYQVLSTLKRITAFHNAHDLSKWDLFACNYKLLKTGIENGDMPEQIVIHALQCTHYVILWQLAKITESSSTKEDLLRLKKQMRVFCQICQHYLTNVNTTVKEQAFTILCDILMIFSHQIMSGGRDMLEPLVYTPDSSLQSELLSFILDHVFIEQDDDNNSADGQQEDEASKIEALHKRRNLLAAFCKLIVYTVVEMNTAADIFKQYMKYYNDYGDIIKETMSKTRQIDKIQCAKTLILSLQQLFNEMIQENGYNFDRSSSTFSGIKELARRFALTFGLDQLKTREAIAMLHKDGIEFAFKEPNPQGESHPPLNLAFLDILSEFSSKLLRQDKRTVYVYLEKFMTFQMSLRREDVWLPLMSYRNSLLAGGDDDTMSVISGISSRGSTVRSKKSKPSTGKRKVVEGMQLSLTEESSSSDSMWLSREQTLHTPVMMQTPQLTSTIMREPKRLRPEDSFMSVYPMQTEHHQTPLDYNRRGTSLMEDDEEPIVEDVMMSSEGRIEDLNEGMDFDTMDIDLPPSKNRRERTELKPDFFDPASIMDESVLGVSMF
modifications: LD655-CoA dye on the ybbR-tag (Sfp labeling)
notes: cohesin subunit SA2; also called SA-LD655; source: High Five (Hi5) insect cells, purified (Ni-NTA, heparin, Superose 6); not shown: ybbR, C-terminal, kept
As to B1, the “fold enrichment on the CBSs with CTCF” value in [9] worked out at 8 fold.

B2: Cohesin subunit SA1 (natural protein, UniProt Q8WVM7 1-1258, looked up)
chain: MITSELPVLQDSTNETTAHSDAGSELEETEVKGKRKRGRPGRPPSTNKKPRKSPGEKSRIEAGIRGAGRGRANGHPQQNGEGEPVTLFEVVKLGKSAMQSVVDDWIESYKQDRDIALLDLINFFIQCSGCRGTVRIEMFRNMQNAEIIRKMTEEFDEDSGDYPLTMPGPQWKKFRSNFCEFIGVLIRQCQYSIIYDEYMMDTVISLLTGLSDSQVRAFRHTSTLAAMKLMTALVNVALNLSIHQDNTQRQYEAERNKMIGKRANERLELLLQKRKELQENQDEIENMMNSIFKGIFVHRYRDAIAEIRAICIEEIGVWMKMYSDAFLNDSYLKYVGWTLHDRQGEVRLKCLKALQSLYTNRELFPKLELFTNRFKDRIVSMTLDKEYDVAVEAIRLVTLILHGSEEALSNEDCENVYHLVYSAHRPVAVAAGEFLHKKLFSRHDPQAEEALAKRRGRNSPNGNLIRMLVLFFLESELHEHAAYLVDSLWESSQELLKDWECMTELLLEEPVQGEEAMSDRQESALIELMVCTIRQAAEAHPPVGRGTGKRVLTAKERKTQIDDRNKLTEHFIITLPMLLSKYSADAEKVANLLQIPQYFDLEIYSTGRMEKHLDALLKQIKFVVEKHVESDVLEACSKTYSILCSEEYTIQNRVDIARSQLIDEFVDRFNHSVEDLLQEGEEADDDDIYNVLSTLKRLTSFHNAHDLTKWDLFGNCYRLLKTGIEHGAMPEQIVVQALQCSHYSILWQLVKITDGSPSKEDLLVLRKTVKSFLAVCQQCLSNVNTPVKEQAFMLLCDLLMIFSHQLMTGGREGLQPLVFNPDTGLQSELLSFVMDHVFIDQDEENQSMEGDEEDEANKIEALHKRRNLLAAFSKLIIYDIVDMHAAADIFKHYMKYYNDYGDIIKETLSKTRQIDKIQCAKTLILSLQQLFNELVQEQGPNLDRTSAHVSGIKELARRFALTFGLDQIKTREAVATLHKDGIEFAFKYQNQKGQEYPPPNLAFLEVLSEFSSKLLRQDKKTVHSYLEKFLTEQMMERREDVWLPLISYRNSLVTGGEDDRMSVNSGSSSSKTSSVRNKKGRPPLHKKRVEDESLDNTWLNRTDTMIQTPGPLPAPQLTSTVLRENSRPMGDQIQEPESEHGSEPDFLHNPQMQISWLGQPKLEDLNRKDRTGMNYMKVRTGVRHAVRGLMEEDAEPIFEDVMMSSRSQLEDMNEEFEDTMVIDLPPSRNRRERAELRPDFFDSAAIIEDDSGFGMPMF
modifications: LD655-CoA dye on the ybbR-tag (Sfp labeling)
notes: cohesin subunit SA1; also called SA-LD655; source: High Five (Hi5) insect cells, purified (Ni-NTA, heparin, Superose 6); not shown: ybbR, C-terminal, kept
Turning to B2, in [9], the “fold enrichment on the CBSs with CTCF” value came out at 10 fold.
